Substitutions are numbered along the chain they refer to.
Columns and labels:
Test in all cases: competitive phage ELISA
[1] = biological target: T1, IGF-I S69A (G1S-A70V background) displayed on phage (human; bacteriophage M13, UniProt P69168 267-424)
T1 chain: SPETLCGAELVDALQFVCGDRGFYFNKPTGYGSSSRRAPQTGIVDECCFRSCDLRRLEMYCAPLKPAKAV
How it was run: (§1)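 Phage, normalized to a maximal ELISA signal of 0.2-0.4 per mutant, were premixed with threefold serial dilutions of soluble competitor in 0.5% Tween 20/PBS and incubated 1 h at room temperature on immobilized target.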

[2] = biological target: T2, IGF-I D45A (G1S-A70V background) displayed on phage (human; bacteriophage M13)
T2 construct: monovalent M13 phage display
T2 chain: T1 chain with D45A, A69S
How it was run: as §1

[3] = biological target: T3, IGF-I G19A (G1S-A70V background) displayed on phage (human; bacteriophage M13)
T3 construct: monovalent M13 phage display
T3 chain: T1 chain with G19A, A69S
How it was run: as §1

[4] = biological target: T4, IGF-I S1A (G1S-A70V background) displayed on phage (human; bacteriophage M13)
T4 construct: range 249-406; monovalent M13 phage display
How it was run: as §1

[5] = biological target: T5, IGF-I R21A (G1S-A70V background) displayed on phage (human; bacteriophage M13, not fully specified; Displayed monovalently on M13 phage as a C-terminal fusion to the gene III fragment, which is left out of the letters.)
T5 construct: monovalent M13 phage display; not shown: Display carrier: M13 gene III fragment (residues 249-406) and its junction
T5 chain: T1 chain with R21A, A69S
How it was run: as §1

[6] = biological target: T6, IGF-I S35A (G1S-A70V background) displayed on phage (human; bacteriophage M13)
T6 construct: monovalent M13 phage display
T6 chain: T1 chain with S35A, A69S
How it was run: as §1

[7] = biological target: T7, des(1-2)-IGF-I displayed on phage (human; bacteriophage M13)
T7 construct: range 249-406; monovalent M13 phage display
How it was run: as §1

[8] = biological target: T8, IGF-I K27A (G1S-A70V background) displayed on phage (human; bacteriophage M13, not fully specified; Displayed monovalently on M13 phage as a C-terminal fusion to the gene III fragment, which is left out of the letters.)
T8 construct: monovalent M13 phage display; not shown: Display carrier: M13 gene III fragment (residues 249-406) and its junction
T8 chain: T1 chain with K27A, A69S
How it was run: as §1

[9] = biological target: T9, IGF-I Q40A (G1S-A70V background) displayed on phage (human; bacteriophage M13)
T9 construct: monovalent M13 phage display
T9 chain: T1 chain with Q40A, A69S
How it was run: as §1

B1: human IGFBP-1 (other, UniProt P08833 26-259, looked up)
chain: APWQCAPCSAEKLALCPPVSASCSEVTRSAGCGCCPMCALPLGAACGVATARCARGLSCRALPGEQQPLHALTRGQGACVQESDASAPHAAEAGSPESPESTEITEEELLDNFHLMAPSEEDHSILWDAISTYDGSKALHVTNIKKWKEPCRIELYRVVESLAKAQETSGEEISKFYLPNCNKNGFYHSRQCETSMDGEAGLCWCVYPWNGKRIPGSPEIRGDPNCQIYFNVQN
notes: secreted recombinant protein purified from conditioned medium
B1 was tested, and the IC50 [1] was 12.8 nM, the IC50 [2] was 4.7 nM and the IC50 [3] was 11 nM. For the same binder, the IC50 [4] was 5.2 nM, the IC50 [5] was 7.1 nM and the IC50 [6] was 11.7 nM. The IC50 [7] was 5 nM, the IC50 [8] was 12.8 nM and the IC50 [9] was 10.2 nM.
